# Source: patent US20190390248
# Target: human prothrombin (UniProt P00734)
substance,measurement,setting,value
carinactivase-2 from Echis carinatus venom,percent of S-2238 hydrolysed by the thrombin formed,,followed by carinactivase-2 (2.5%)
same,Thrombin generation rate,scale: nmol thrombin/mL/min/µmol prothrombin/µmol activator,1.91
